Target: AP2M (UniProt P84091)
Experiment: cell-free ELISA, antibody-captured AP2M, biotinylated peptide
Settings: reference: unphosphorylated control peptide; sites Y816

binding against the reference: stronger
Substance: TRKB (C-terminal peptide) C-terminus, last 26 aa (from UniProt Q63604) pY816 peptide
